Biological target: T1, GST-tagged NUFIP2 (Homo sapiens (Human)) (UniProt Q7Z417)
T1 sequence: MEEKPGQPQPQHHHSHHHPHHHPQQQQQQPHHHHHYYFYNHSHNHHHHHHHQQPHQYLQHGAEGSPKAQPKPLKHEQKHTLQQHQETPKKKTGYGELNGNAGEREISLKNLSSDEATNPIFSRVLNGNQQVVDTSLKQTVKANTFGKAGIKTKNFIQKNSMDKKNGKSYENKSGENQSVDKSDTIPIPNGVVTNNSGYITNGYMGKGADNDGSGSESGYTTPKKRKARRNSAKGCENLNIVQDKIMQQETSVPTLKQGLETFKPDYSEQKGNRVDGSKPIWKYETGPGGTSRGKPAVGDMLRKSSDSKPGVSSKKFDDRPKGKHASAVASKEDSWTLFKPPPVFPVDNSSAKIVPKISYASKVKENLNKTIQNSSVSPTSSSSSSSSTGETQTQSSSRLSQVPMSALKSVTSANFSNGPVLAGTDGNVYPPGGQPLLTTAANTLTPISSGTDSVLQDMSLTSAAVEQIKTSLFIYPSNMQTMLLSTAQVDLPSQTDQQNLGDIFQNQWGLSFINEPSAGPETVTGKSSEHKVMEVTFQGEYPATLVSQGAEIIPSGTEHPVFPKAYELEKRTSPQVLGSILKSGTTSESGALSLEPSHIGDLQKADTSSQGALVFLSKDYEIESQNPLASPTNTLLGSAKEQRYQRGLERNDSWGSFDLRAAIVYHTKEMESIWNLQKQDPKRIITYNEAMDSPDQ
Experiment: GST pulldown of in vitro translated radiolabeled Myc-G3BP1 with GST-NUFIP2

Sequence of Myc-tagged G3BP1 (in vitro translated and radiolabeled) (Q13283 whole entry): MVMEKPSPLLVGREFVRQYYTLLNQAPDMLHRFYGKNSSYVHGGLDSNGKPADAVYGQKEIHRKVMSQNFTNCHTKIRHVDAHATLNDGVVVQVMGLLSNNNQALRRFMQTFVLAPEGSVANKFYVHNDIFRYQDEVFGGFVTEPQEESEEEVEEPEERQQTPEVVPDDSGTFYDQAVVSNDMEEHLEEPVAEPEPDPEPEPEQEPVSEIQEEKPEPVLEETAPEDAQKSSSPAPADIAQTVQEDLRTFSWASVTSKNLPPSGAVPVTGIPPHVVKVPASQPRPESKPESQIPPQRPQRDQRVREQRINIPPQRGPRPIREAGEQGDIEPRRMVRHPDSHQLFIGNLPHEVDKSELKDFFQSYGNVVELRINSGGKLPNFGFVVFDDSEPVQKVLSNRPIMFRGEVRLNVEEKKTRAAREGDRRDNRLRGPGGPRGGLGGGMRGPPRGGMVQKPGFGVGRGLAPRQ

Substance “Myc-tagged G3BP1 (in vitro translated and radiolabeled) (from UniProt Q13283 1-466)” has a % binding (percent of the input bound) of 60%.

From patent publication US20240409935A1, “Atg8ylation coordinates stress granule formation and mTOR inactivation in response to lysosomal damage” (priority 2023, published 2024)
